# Where “and” joins values, the source holds several entries; their conditions need not be identical. Identical values can stand only once.
# Experiments:
# [1] = system: Raji cells (STEAP2 negative); experiment: FACS binding to STEAP2-negative Raji cells; conditions: human-Fc antibodies
# Description: (§1) The ability of anti-STEAP2 antibodies to selectively bind to human six-transmembrane epithelial antigen of prostate 2 (STEAP2) endogenously expressing cell lines was determined via FACS analysis.
# (§2) Briefly, 1×10^5 cells were incubated with 10 μg/ml of anti STEAP2 antibodies, or isotype control antibodies for 30 min on ice in antibody dilution buffer. Following one wash with antibody dilution buffer, cells were incubated with 10 μg/ml of PE conjugated anti-human or anti mouse Fc secondary antibodies for 30 min on ice. Following one additional wash, samples were incubated with Cytofix (1% formaldehyde) for 20 minutes. After one final wash, samples were filtered through a Pall 96 well filtration block, run on a Hypercyt® cytometer and analyzed in ForeCyt™ (IntelliCyt, Albuquerque, N. Mex.). Mean fluorescence intensities (MFI) were expressed as fold change above unstained levels (background). The average fold above background at antibody concentrations of 100-300 nM were determined. For cell binding EC50 determinations, mAb concentrations ranged from 300 nM to […] and EC50 values were determined from a four-parameter logistic equation over a 12-point response curve (GraphPad Prism).
# [2] = system: FADU cells (STEAP2 negative); experiment: FACS binding to STEAP2-negative FADU cells; conditions: human-Fc antibodies
# Description: as §1, §2
# [3] = system: human prostate cancer C4-2 cells (xenograft); experiment: C4-2/human PBMC co-implant xenograft in NSG mice, immediate dosing; format: in vivo, mouse; conditions: C4-2/NSG
# Description: To assess the in vivo efficacy of the anti-STEAP2/anti-CD3 bispecifics in human tumor xenograft studies, NOD scid gamma (NSG) mice (Jackson Laboratories, Bar Harbor, Me.) were co-implanted with human peripheral blood mononuclear cells (PBMCs; ReachBio LLC., Seattle, Wash.) along with human prostate cancer C4-2 cells (MD Anderson Cancer Center, Houston Tex.) which endogenously express STEAP2.
# Briefly, 5.0×10^6 C4-2 cells were co-implanted subcutaneously (s.c.) with 1.25×10^6 human PBMCs in a 50:50 mix of matrigel matrix (BD Biosciences, San Jose, Calif.) into the right flank of male NSG mice. Mice were treated intraperitoneally (i.p.) on the day of implantation (immediate treatment model) with anti-STEAP2/anti-CD3 bispecifics BSSTEAP2/CD3-001, BSSTEAP2/CD3-002 or BSSTEAP2/CD3-003, or an isotype control, at a dose of 0.1 or 0.01 mg/kg (N=5 mice/group).
# Tumor size was measured 2×/week using calipers and tumor volume calculated as Volume=(length×width^2)/2. Data is shown as tumor size (mm^3) at study endpoint, 46 d post-tumor implantation (Table 7).
# cynomolgus T cells = experiment: FACS binding titration of STEAP2xCD3 bispecifics on cynomolgus T cells; conditions: 66.6 nM to 0.001 nM, 30 minutes at 4° C.
# Description: FACS Binding Titration on Jurkat Cells, PC3_STEAP2/1 Cells and cynomolgus T Cells: Flow cytometric analysis was utilized to determine binding of STEAP2×CD3 bispecific antibodies to Jurkat, PC3_STEAP2/1 chimeric and cynomolgus T cells, followed by detection with a phycoerythrin (PE)-labeled anti-human IgG antibody. Briefly, 2×10^5 cells/well were incubated for 30 minutes at 4° C. with a serial dilution of STEAP2×CD3 bispecific antibodies or control antibody (a human IgG1 antibody that binds a feline antigen with no cross-reactivity to STEAP2 or human or cynomolgus CD3) ranging from 66.6 nM to 0.001 nM. After incubation, the cells were washed twice with cold PBS containing 1% filtered FBS and a PE-conjugated anti-human secondary antibody was added to the cells and incubated for an additional 30 minutes. Wells containing no antibody or secondary antibody only were used as a control. After incubation, cells were washed, re-suspended in 200 μL cold PBS containing 1% filtered FBS and analyzed by flow cytometry on a BD FACS Canto II.
# monkey PBMCs = experiment: T cell proliferation assay, cynomolgus PBMC; format: cell-based; conditions: for Cynomolgus PBMC proliferation activity (in words): across donors tested
# Description: Thawed human or freshly isolated monkey PBMCs (50,000 cells/well) were incubated with 3-fold (human, concentration range: 5E-10M to 2.82E-15M; cynomolgus, concentration range: 1E-09M to 4.57E-13M) serial dilutions of STEAP2×CD3 bispecifics or isotype control in complete medium (RPMI supplemented with 10% FBS, 100 U/mL penicillin, 100 μg/mL streptomycin, 292 μg/mL L-glutamine) and a fixed concentration (human: 200 ng/mL, cyno: 500 ng/mL) of a commercial anti-CD28 antibody (Biolegend, Catalog #302914) in white flat bottom 96-well plates for 72 hours at 37° C. Isolated monkey PBMCs were from two donors (identified as mk8781M or mk9381M). Following incubation, CellTiter Glo® (Promega, Cat #7573) was added and luminescence, as readout for cell viability, was measured using a VICTOR X5 multi-label plate reader. Cell titer was calculated by dividing the luminescence of stimulated cells by the baseline luminescence of unstimulated cells.
# [4] = system: C4-2 cells (high-STEAP2 expressing); experiment: Internalization and total binding on C4-2 cells (imaging, qualitative score); format: cell-based, human; parameters: key: − (no internalization or binding); +(weak internalization or binding); ++(moderate internalization or binding); +++(robust internalization or binding); conditions: 10 μg/ml antibody
# Description: Briefly, 20,000 C4-2 cells were seeded in PDL coated 96 well plates. The next day, cells were incubated with anti-human STEAP2 antibodies (10 μg/ml) for 30 min on ice followed by two PBS washes. Cells were then incubated with alexa488-conjugated anti-hFc Fab secondary antibody for 30 minutes on ice, followed by two additional PBS washes. Antibodies were allowed to internalize for 1 h at 37° C. in internalization buffer (PBS+2% FBS) or were maintained at 4° C. Cells were fixed in 4% formaldehyde, nuclei were stained with DRAQ5 (Cell signaling), and images were acquired on the ImageXpress micro XL (Molecular Devices).
# A qualitative visual assessment of the total binding intensity and the intensity of antibodies that had internalized into vesicles was performed and scored according to the following criteria: − (no internalization or binding), +(weak internalization or binding), ++(moderate internalization or binding) and +++(robust internalization or binding).
Cynomolgus T cells EC50 [M] (cynomolgus T cells),Molecule,Raji Avg F.A.B (Fold Above Background) [1],FADU Avg F.A.B (Fold Above Background) [2],Cynomolgus PBMC proliferation activity (in words) (monkey PBMCs),also measured
–,"H1H7810N: human-Fc anti-STEAP2 antibody; variable regions presumably as H2M7810N (antibody, V domains shown) VH: QVQLVESGGGVVQPGRSLRLSCAVSGFTSSTYGMNWVRQAPGKGLEWVAVISYDGSNKYYADSVKGRFTISRDNSKNTLYLQMNSLRPEDTAVYYCARGRYFDLWGRGTLVTVSS VL: DIQMTQSPSTLSASVGDRVTITCRASQIISSWLAWYQQKPGKAPKLLIYKASSLASGVPSRFSGSGSGTEFTLTISSLQPDDFATYYCQQYKSYSYTFGQGTKLEIK",2 fold,–,–,–
–,"H1H7811N: human-Fc anti-STEAP2 antibody; variable regions presumably as H2M7811N (antibody, V domains shown) VH: QVQLVESGGGVVQPGRSLRLSCAVSGFTSSTYGMNWVRQAPGKGLEWVAVISFDGSNKYYADSVKGRFTISRDNSKNTLYLQMSSLRPEDTAVYYCARGRYFDLWGRGTLVTVSS VL: DTQMTQSPSTLSASVGDRVTITCRASQIISSWLAWYQQKPGKAPKLLIYKASSLASGVPSRFSGSGSGTEFTLTISSLQPDDFATYYCQQYKSYSYTFGQGTNLEIK",4 fold,3 fold,–,–
–,"BSSTEAP2/CD3-001: STEAP2×CD3 bispecific: anti-STEAP2 HCVR H2M11162N (SEQ 250), anti-CD3 HCVR CD3-VH-G (SEQ 1730), common LCVR SEQ 258 (antibody, V domains shown) VH 1: QVQLQQSGPGLVKPSQTLSLTCAISGDSVSSNRAAWNWIRQSPSRGLQWLGRTYYRSKWYNDYAVSLRSRITINPVTSKNQVALHMNSVTPEDTAVYYCARAGIVVVPGPETFYYYDHGLDVWGQGTTVTVSS VH 2: EVQLVESGGGLVQPGRSLRLSCAASGFTFDDYSMHWVRQAPGKGLEWVSGISWNSGSKGYADSVKGRFTISRDNAKNSLYLQMNSLRAEDTALYYCAKYGSGYGKFYHYGLDVWGQGTTVTVSS VL: DIQMTQSPSSLSASVGDRVTITCRASQSIRSYLNWYQQKPGKAPELLIHAASSLQSGVPSRFSGSGSGTDFTLTISSLQPEDFASYYCQQSYSAPPITFGQGTRLEIK",–,–,induced robust cynomolgus PBMC proliferation in all donors tested,"Tumor Size (mm^3) 46 d post-tumor implantation (mean ± SD) ([3]; 0.01 mg/kg i.p. on day of implantation): 23.0 ± 220 mm^3; Tumor Size (mm^3) 46 d post-tumor implantation (mean ± SD) ([3]; 0.1 mg/kg i.p. on day of implantation): 18.0 ± 14.0 mm^3; Tumor growth compared to isotype control at study endpoint (in words) ([3]; 0.1 or 0.01 mg/kg): significantly suppressed tumor growth; EC50 (cynomolgus T cells): 7270 pM; EC50 (monkey PBMCs; donor mk9381M, anti-CD28 500 ng/mL, 72 hours, read-out: Cyno PBMC Proliferation [M] (donor)): 4.6e-12 M and 4.59e-12 M"
No Binding,"BSSTEAP2/CD3-009: STEAP2×CD3 bispecific: anti-STEAP2 H1H11164 (SEQ 282), anti-CD3 H1H7208P (SEQ 1490), common LCVR SEQ 290 (antibody, V domains shown) VH 1: QVQLQQSGPGLVKPSQTLSLTCVISGDSVSTNSAAWNWIRQSPSRGLEWLGRTYYRSKWYNDYAVSVRSRITINPVTSKNQVALHLNSVTPEDTAVYYCARAGIVVVPGPETYYYYYHGLDVWGQGTTVTVSS VH 2: QVQLVESGGGLVHPGRSLRLSCAASGFKFDDYTMHWVRQAPGKGLEWVSDISWNSGSKGYADSVKGRFTISRDNAKDSLYLQMDSLRAADTAFYYCAKDKSGYGHFYYYAMDVWGQGTTVTVSS VL: DIQMTQSPSSLSASVGDRVTITCRASQNIRSYLNWYQQKPGKAPKLLIHVASSLQSGVPSRFSGSGSGTDFTLTISSLQPEDFATYYCQQSYSTPPITFGHGTRLEIK",–,–,no activity,–
–,"H1H11164N: human-Fc anti-STEAP2 antibody, HCVR/LCVR SEQ ID NOs 282/290 (antibody, V domains shown, human Fc) VH: QVQLQQSGPGLVKPSQTLSLTCVISGDSVSTNSAAWNWIRQSPSRGLEWLGRTYYRSKWYNDYAVSVRSRITINPVTSKNQVALHLNSVTPEDTAVYYCARAGIVVVPGPETYYYYYHGLDVWGQGTTVTVSS VL: DIQMTQSPSSLSASVGDRVTITCRASQNIRSYLNWYQQKPGKAPKLLIHVASSLQSGVPSRFSGSGSGTDFTLTISSLQPEDFATYYCQQSYSTPPITFGHGTRLEIK",–,3 fold,–,"Internalization (37° C., 1 h) Qualitative Score [4]: +++; Total Binding (4° C.) Qualitative Score [4]: +++"
No Binding,"BSSTEAP2/CD3-005: STEAP2×CD3 bispecific: anti-STEAP2 H1H11162 (SEQ 250), anti-CD3 H1H7208P (SEQ 1490), common LCVR SEQ 258 (antibody, V domains shown) VH 1: QVQLQQSGPGLVKPSQTLSLTCAISGDSVSSNRAAWNWIRQSPSRGLQWLGRTYYRSKWYNDYAVSLRSRITINPVTSKNQVALHMNSVTPEDTAVYYCARAGIVVVPGPETFYYYDHGLDVWGQGTTVTVSS VH 2: QVQLVESGGGLVHPGRSLRLSCAASGFKFDDYTMHWVRQAPGKGLEWVSDISWNSGSKGYADSVKGRFTISRDNAKDSLYLQMDSLRAADTAFYYCAKDKSGYGHFYYYAMDVWGQGTTVTVSS VL: DIQMTQSPSSLSASVGDRVTITCRASQSIRSYLNWYQQKPGKAPELLIHAASSLQSGVPSRFSGSGSGTDFTLTISSLQPEDFASYYCQQSYSAPPITFGQGTRLEIK",–,–,no activity,–
